Laboratory results: paper PMC7312664, “Beneficial Effects of Inflammatory Cytokine-Targeting Aptamers in an Animal Model of Chronic Prostatitis”

Target: IL-1b (human) (human, UniProt P01584 117-269)
Assay: plate binding assay / ELISA with aptamer replacing primary antibody; dose-dependent; protein fixed in plate, n = 3; buffer, salt, pH and temperature not given in the material

Sequence of IL-1b (human) (P01584 117-269): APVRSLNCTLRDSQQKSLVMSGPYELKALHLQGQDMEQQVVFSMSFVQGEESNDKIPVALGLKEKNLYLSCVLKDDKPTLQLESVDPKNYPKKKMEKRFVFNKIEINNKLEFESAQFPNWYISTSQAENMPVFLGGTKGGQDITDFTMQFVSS

GAAGTATAGCGCAATAAACTCACCTCCCAC (ssDNA) [AptIL-1b]
binding result: binds
